Laboratory results published in paper PMC9621694.

Target: purified trimeric native F protein of respiratory syncytial virus (respiratory syncytial virus) (UniProt P03420)
Test: SPR; normalized maximum SPR signal of purified scaffolds, point mutants and RSV-F at various concentrations of hRSV90 antibody, sigmoid fits

purified trimeric native F protein of respiratory syncytial virus (respiratory syncytial virus), sequence (P03420 138-513): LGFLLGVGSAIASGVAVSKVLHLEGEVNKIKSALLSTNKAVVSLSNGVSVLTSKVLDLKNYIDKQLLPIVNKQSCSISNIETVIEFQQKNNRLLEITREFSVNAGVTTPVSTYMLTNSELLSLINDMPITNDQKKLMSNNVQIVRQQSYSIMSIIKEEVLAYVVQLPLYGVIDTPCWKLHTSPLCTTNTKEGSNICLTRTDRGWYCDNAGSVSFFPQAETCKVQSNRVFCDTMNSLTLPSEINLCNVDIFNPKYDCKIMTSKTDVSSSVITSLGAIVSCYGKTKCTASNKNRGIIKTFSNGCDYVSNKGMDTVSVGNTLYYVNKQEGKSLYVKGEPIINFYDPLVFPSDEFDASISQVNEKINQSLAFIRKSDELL

With neutralizing antibody hRSV90 as the substance, how does the Kd read?
Its Kd is 23 nM.
